The nanobody polyreactivity screen of Harvey et al. (2022)

Assay: yeast display, Sf9 membrane polyspecificity reagent, FACS + sequencing; frameworks hold sequencing errors
How it was run: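 A synthetic nanobody library was expressed on Saccharomyces cerevisiae BJ5465 by galactose induction for 36–48 hours. The library was stained for 1 hour at 4 °C with 10% biotinylated, detergent-solubilized Sf9 membrane reagent and enriched with streptavidin microbeads before FACS. Low and high (top ~1%) gates were set on anti-HA fluorescence for expression and streptavidin fluorescence for reagent binding, and each polyreactivity label reflects the gate of origin.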

Sequence	polyreactivity (PSR sort gate)
QVQLVESGGGLVQAGGSLRLSCAASGRIFRVNAMGWYRQAPGKERELVATITGSGGSTYYADSVKGRFTISRDNAKNTVYLQMNSLKPEDTAVYYCAAVSYWPTDRYYSWGQGTQVTVSS	low polyreactivity
QVQLVESGGGLVQAGGSLRLICAASGFTFSVYAMGWYRQAPGKERELVAAITWRGGSTYYADSVKGRFTISRDNAKNTVYLQMNSLKPEDTAVYYCAVLYPKYGKRYGYWGQGTQVTVSS	high polyreactivity
QVQLVESGGGLVQAGGSLRLSCAASGFIFRWYAMGWSRQAPGKERELVAAISSGGSTYYADSVKGRFTISRDNAKNTVYLQMNSLKPEDTAVYYCAVRRYSEGDYWGQGTQVTVSS	high polyreactivity
QVQLVESGGGLVQAGGSLRLSCAASGSTFTSYAMGWYRQAPGKERELVAAITSRGGTSYADSVKGRFTISRDNAKNTVYLQMNSLKPEDTAVYYCAARATYKKYPYVKWYDYWGQGPQVTVSS	high polyreactivity
QVQLVESGGGLVQAGGSLRLSCAASGSTVYYNAMGWYRQAPGKEREFVAAINCRGGSTYYADSVKGRFTISRDNSKNTVYLQMNSLKPEDTAVYYCAAEEPSTYYYVRSGYDYHFWEMYSWGQGTQVTVSS	low polyreactivity
QVQLVESGGGLVQAGGSLRLSCAASGFTFWGYGMGWYRQAPGKERELVAAISGSGGSTYYADSVKGRFTISRDNAKNTVYLQMNSLKPEDTAVYYCNKATQFYQWGASPYYPRRDYWGQGTQVTVSS	low polyreactivity
QVQLVESGGGLVQAGGSLRLSCAASGRILYKYAMGWYRQAPGKERELVAAISWRGTTTYYADSVKGRFTISRDNAKNTVYLQMNSLKPEDTAVYYCAKDRSYGYFSRPVSQYDYWGQGTQVTVSS	high polyreactivity
QVQLVDSGGGLVQAGGSLRLSCAASGRIFRYYAMGWYRQAPGKERELVAGINQSGGSTYYADSVKGRFTISRDNAKNTVYLQMNSLKPEDTAVYYCAAKVSWPKYDYWGQGTQVTVSS	low polyreactivity
QVQLVESGGGLVQAGGSLRLSCAASGSIFATYAMGWYRQAPGKERELVAAISSSGSRTYYADSVKGRFTNSRDNAKNTVYLQMNSLKPEDTAVYYCAAGSGRFRPGYGYWGQGTQVTVSS	high polyreactivity
QVQLVESGGGLVQAGGSLRLSCAASGRIFPFYAMGWYIQAPGKERELVAAISRSGRTNYADSVKGRFTISRDNAKNTVFLQMNSLKPEDTAVYYCNADYYLFDFDSWGQGTQVTVSS	low polyreactivity
QVQLVESGGGLVQAGGSLSLSCAASGSTFQLYAKGWYRQAPGKERELVAAISGIGDSTYYADSVKWRFTISRDNAKNTVYLLMNSLKPEDTAVYYCAREFSDGLSGKFDYWGHGTQVTVSS	low polyreactivity
QVQLVESGGGLVQAGGSLRLSCAASGSIFGYYAMGWYRQEPGKERELVAAITRSGGSTYYADSVKGRFTISRDNAKNPVYLQMNSLKPEDTAVYYCNAVRYAVRLPAFPGYDYWGQGTQVTVSS	high polyreactivity
QVQLVESGGGLVQAGGSLSLSCAASGLTFANYVMGWYRQEPGKERELVAAISRSGGSTYYADSVKGRFTISRDNAKNTVYLQMNSLKPEDPAVYYCAAAAWDPKGSRYDYWGQGPQVTVSS	low polyreactivity
QVQLVESGVGLVQAGGSLLLSCAASGRTFSYNPMGSYRQAPGKERELVALISSGGSTNYADSVKGRFTISRDNAKNTVYLQMNSLKPEDTALYYCNAGSYVWEEDYWGQGTQVTVSS	high polyreactivity
QVQLVESGGGLVQAGGSLRLSCAASGRIFGHNAMGWYRQAPGKERELVATISSGVRTNYADSVKGRFTISRDNAKNTVYLQMNSLKPEDTAVYYCATKTYQFGYSSYYYWGQGTQVTVSS	high polyreactivity
QVQIVESGGGLVQAGGSLRLSCAASVIIFSKYGMGWYRQAPGKERELVAAISSSGGTTYYADSVKGRFTISRDNAKNTVYLQMNSLKPEDTAVYYCAATGRRRTYSEYEYWGQGTQVTVSS	high polyreactivity
QVQLVESGGGLVQAGGSLRLSCAASGRIFYHNAMGWYRQAPGKERELVAAISWSGGNTYYADSVKGRFTISRDNAKNTVYLQMNSLKPEDTAVYYCNRYWYRDRLWLYDYWGQGTQVTVSS	high polyreactivity
QVQLVESGGGLVQAGGSLRLSCAASGRTFYVNAMGWYRQAPGKEREFVATITRTGGDTYYADSVKGRFTISRDNAKNTVYLQMNSHKPEDTAVFYCNAEGYTVKYWYSRYDYWGQGTQVTVSS	high polyreactivity
QVQLVESGGGLVQAGGSLRLSCAASGSTFYTNAMGWYRQAPGKERELVAAISYSGGGTYYADSVKGRFTISRDNAKNTVYLQMNSLKPEDTAVYYCAADTLQRAFVLYDYWGQGTQVTVSS	high polyreactivity
QVQLVESGGGLVQAGGSLRLSCAASGSTFYQYAMGWYRQAPGKERELGAAITRSGGSTYYADSVKGRFTISRDNAKNTVYLQMNSLKPEDPAVYYCAADRARRGIRDYYWGQGTQVTVSS	high polyreactivity
QVHLVESGGGLVQAGGSLRLSCAASGSTFQTNAMGWSRQAPGKERELVAAISRTGGRSNYADSVKGRFTISRDNAKNTVYLQMHSLKPEDTAVYDCAAGVPKTGQAGYDYWGQGTQVTVSS	high polyreactivity
QVQLVESGGGLVQAGGSLRLSCASSGRIFSVYTMGWYRQAPGKERELVAAISSGASTNYADSVKGRFTISRDNAMNTVYLQMKSLKPEDTAVYYCAAVSPRRYRYDYWGQGTQVTVSS	low polyreactivity
QVQLVESGGGLVQAGGSLRLSCAPSGSTFIPNPMGWYRQAPGKERELVAAISRRGGSTNYADSVKGRFTISRDNAKNTVYLQMNSLKPEDTALYYCAAVSPRRYRYDYWGQGPQVTVSS	low polyreactivity
QVQLVESGGGIVQAGGSLRLSCAASGNILFSYAMGWYRQAPGKERELVAAISRSGGSTYYADSVKGRFTISRDNAKNTVYLQMNSLKPEDTAVYYCNAGVYYSYSVTEDYWGQGTQVTVSS	high polyreactivity
QVQLVESAGCLVQAGGSLRLSCAASGRTFAVYAMGWSRPAPGKQREMVAAITLGASRSYYADSVKGRFTISRDNAKNTVYLQMNRLKPEDSAVYYWNDVGRLNVDSYLNDYWGKGTQVTVSS	low polyreactivity
QVQLVESGGRLVQAGGSLRLSCAASGRTIYSNTMGWYRQAPGKEREFVAAIPSIVGSTYYADSVKGRFTISRDNAKNTVYLQMNSLKPEDTAVYYCAVTDYYSYLLRYDSWGQGTQVTVSS	low polyreactivity
QVQLEESGGGLVQAGGSLRLSCAASGRTFSSYAMVWYRQAPGKERELVAAINSGGSTNYADSVKGRFTISRDNAKNTVYLQMNSLKPEDTAVYYCNAVTFWGLGYDYWGQGTQVTVSS	low polyreactivity
QVQLVESGGGLVQAGGSLRLSCAASGRTFTRYAMGWYRQAPGKERELVAAISRGGNTNYADSVKGLFTISRDNAKNTVYLQMNSLKPEDTAVYYCARVYGGYSVPSAYGSWGQGTQVTVSS	high polyreactivity
QVHLVESGGGLVQAGGSLRLSCAASGSTFISYAMGWYRQAPGKERELVAAISRNGGRTYYADSVKGRFTISRDNAKNTVYLQMNSLKPEDTAVYYCAAAYNSYRFDYWGQGTQVTVSS	high polyreactivity
QVQLVESGGGLVQAGGSLRLSCAASGSIFHANAMGWYRQAPGKERELVAVISQGGGSTYYADSVKGRFTISRDNAKNTVYLQMNSLKPEDTAFYYCAAYYYYSAYGDDYWGQGTQVTVSS	high polyreactivity
